B1: NUFIP2 (protein, UniProt Q7Z417 1-695, looked up)
FMR1-interacting protein …: MEEKPGQPQPQHHHSHHHPHHHPQQQQQQPHHHHHYYFYNHSHNHHHHHHHQQPHQYLQHGAEGSPKAQPKPLKHEQKHTLQQHQETPKKKTGYGELNGNAGEREISLKNLSSDEATNPISRVLNGNQQVVDTSLKQTVKANTFGKAGIKTKNFIQKNSMDKKNGKSYENKSGENQSVDKSDTIPIPNGVVTNNSGYITNGYMGKGADNDGSGSESGYTTPKKRKARRNSAKGCENLNIVQDKIMQQETSVPTLKQGLETFKPDYSEQKGNRVDGSKPIWKYETGPGGTSRGKPAVGDMLRKSSDSKPGVSSKKFDDRPKGKHASAVASKEDSWTLFKPPPVFPVDNSSAKIVPKISYASKVKENLNKTIQNSSVSPTSSSSSSSSTGETQTQSSSRLSQVPMSALKSVTSANFSNGPVLAGTDGNVYPPGGQPLLTTAANTLTPISSGTDSVLQDMSLTSAAVEQIKTSLFIYPSNMQTMLLSTAQVDLPSQTDQQNLGDIFQNQWGLSFINEPSAGPETVTGKSSEHKVMEVTFQGEYPATLVSQGAEIIPSGTEHPVFPKAYELEKRTSPQVLGSILKSGTTSESGALSLEPSHIGDLQKADTSSQGALVFLSKDYEIESQNPLASPTNTLLGSAKEQRYQRGLERNDSWGSFDLRAAIVYHTKEMESIWNLQKQDPKRIITYNEAMDSPDQ
B2: CAPRIN1 (protein, UniProt Q14444 2-709, looked up)
Caprin-1: PSATSHSGSGSKSSGPPPPSGSSGSEAAAGAGAAAPASQHPATGTGAVQTEAMKQILGVIDKKLRNLEKKKGKLDDYQERMNKGERLNQDQLDAVSKYQEVTNNLEFAKELQRSFMALSQDIQKTIKKTARREQLMREEAEQKRLKTVLELQYVLDKLGDDEVRTDLKQGLNGVPILSEEELSLLDEFYKLVDPERDMSLRLNEQYEHASIHLWDLLEGKEKPVCGTTYKVLKEIVERVFQSNYFDSTHNHQNGLCEEEEAASAPAVEDQVPEAEPEPAEEYTEQSEVESTEYVNRQFMAETQFTSGEKEQVDEWTVETVEVVNSLQQQPQAASPSVPEPHSLTPVAQADPLVRRQRVQDLMAQMQGPYNFIQDSMLDFENQTLDPAIVSAQPMNPTQNMDMPQLVCPPVHSESRLAQPNQVPVQPEATQVPLVSSTSEGYTASQPLYQPSHATEQRPQKEPIDQIQATISLNTDQTTASSSLPAASQPQVFQAGTSKPLHSSGINVNAAPFQSMQTVFNMNAPVPPVNEPETLKQQNQYQASYNQSFSSQPHQVEQTELQQEQLQTVVGTYHGSPDQSHQVTGNHQQPPQQNTGFPRSNQPYYNSRGVSRGGSRGARGLMNGYRGPANGFRGGYDGYRPSFSNTPNSGYTQSQFSAPRDYSGYQRDGYQQNFKRGSGQSGPRGAPRGRGGPPRPNRGMPQMNTQQVN
B3: SPATS2 (protein, UniProt Q86XZ4 1-545, looked up)
Spermatogenesis-associated …: MSRKQNQKDSSGFIFDLQSNTVLAQGGAFENMKEKINAVRAIVPNKSNNEIILVLQHFDNCVDKTVQAFMEGSASEVLKEWTVTGKKKNKKKKNKPKPAAEPSNGIPDSSKSVSIQEEQSAPSSEKGGMNGYHVNGAINDTESVDSLSEGLETLSIDARELEDPESAMLDTLDRTGSMLQNGVSDFETKSLTMHSIHNSQQPRNAAKSLSRPTTETQFSNMGMEDVPLATSKKLSSNIEKSVKDLQRCTVSLARYRVVVKEEMDASIKKMKQAFAELESCLMDREVALLAEMDKVKAEAMEILLSRQKKAELLKKMTHVAVQMSEQQLVELRADIKHFVSERKYDEDLGRVARFTCDVETLKKSIDSFGQVSHPKNSYSTRSRCSSVTSVSLSSPSDASAASSSTCASPPSLTSANKKNFAPGETPAAIANSSGQPYQPLREVLPGNRRGGQGYRPQGQKSNDPMNQGRHDSMGRYRNSSWYSSGSRYQSAPSQAPGNTIERGQTHSAGTNGTGVSMEPSPPTPSFKKGLPQRKPRTSQTEAVNS
B4: CRIP2 (protein, UniProt P52943 1-208, looked up)
Cysteine-rich protein 2: MASKCPKCDKTVYFAEKVSSLGKDWHKFCLKCERCSKTLTPGGHAEHDGKPFCHKPCYATLFGPKGVNIGGAGSYIYEKPLAEGPQVTGPIEVPAARAEERKASGPPKGPSRASSVTTFTGEPNTCPRCSKKVYFAEKVTSLGKDWHRPCLRCERCGKTLTPGGHAEHDGQPYCHKPCYGILFGPKGVNTGAVGSYIYDRDPEGKVQP
B5: ACLY (protein, UniProt P53396 1-1101, looked up)
ATP-citrate synthase: MSAKAISEQTGKELLYKFICTTSAIQNRFKYARVTPDTDWARLLQDHPWLLSQNLVVKPDQLIKRRGKLGLVGVNLTLDGVKSWLKPRLGQEATVGKATGFLKNFLIEPFVPHSQAEEFYVCIYATREGDYVLFHHEGGVDVGDVDAKAQKLLVGVDEKLNPEDIKKHLLVHAPEDKKEILASFISGLFNFYEDLYFTYLEINPLVVTKDGVYVLDLAAKVDATADYICKVKWGDIEFPPPFGREAYPEEAYIADLDAKSGASLKLTLLNPKGRIWTMVAGGGASVVYSDTICDLGGVNELANYGEYSGAPSEQQTYDYAKTILSLMTREKHPDGKILIIGGSIANFTNVAATFKGIVRAIRDYQGPLKEHEVTIFVRRGGPNYQEGLRVMGEVGKTTGIPIHVFGTETHMTAIVGMALGHRPIPNQPPTAAHTANFLLNASGSTSTPAPSRTASFSESRADEVAPAKKAKPAMPQDSVPSPRSLQGKSTTLFSRHTKAIVWGMQTRAVQGMLDFDYVCSRDEPSVAAMVYPFTGDHKQKFYWGHKEILIPVFKNMADAMRKHPEVDVLINFASLRSAYDSTMETMNYAQIRTIAIIAEGIPEALTRKLIKKADQKGVTIIGPATVGGIKPGCFKIGNTGGMLDNILASKLYRPGSVAYVSRSGGMSNELNNIISRTTDGVYEGVAIGGDRYPGSTFMDHVLRYQDTPGVKMIVVLGEIGGTEEYKICRGIKEGRLTKPIVCWCIGTCATMFSSEVQFGHAGACANQASETAVAKNQALKEAGVFVPRSFDELGEIIQSVYEDLVANGVIVPAQEVPPPTVPMDYSWARELGLIRKPASFMTSICDERGQELIYAGMPITEVFKEEMGIGGVLGLLWFQKRLPKYSCQFIEMCLMVTADHGPAVSGAHNTIICARAGKDLVSSLTSGLLTIGDRFGGALDAAAKMFSKAFDSGIIPMEFVNKMKKEGKLIMGIGHRVKSINNPDMRVQILKDYVRQHFPATPLLDYALEVEKITTSKKPNLILNVDGLIGVAFVDMLRNCGSFTREEADEYIDIGALNGIFVLGRSMGFIGHYLDQKRLKQGLYRHPWDDISYVLPEHMSM
B6: HNRNPA3 (protein, UniProt P51991 1-378, looked up)
Heterogeneous nuclear …: MEVKPPPGRPQPDSGRRRRRRGEEGHDPKEPEQLRKLFIGGLSFETTDDSLREHFEKWGTLTDCVVMRDPQTKRSRGFGFVTYSCVEEVDAAMCARPHKVDGRVVEPKRAVSREDSVKPGAHLTVKKIFVGGIKEDTEEYNLRDYFEKYGKIETIEVMEDRQSGKKRGFAFVTFDDHDTVDKIVVQKYHTINGHNCEVKKALSKQEMQSAGSQRGRGGGSGNFMGRGGNFGGGGGNFGRGGNFGGRGGYGGGGGGSRGSYGGGDGGYNGFGGDGGNYGGGPGYSSRGGYGGGGPGYGNQGGGYGGGGGYDGYNEGGNFGGGNYGGGGNYNDFGNYSGQQQSNYGPMKGGSFGGRSSGSPYGGGYGSGGGSGGYGSRRF

Key:
[1] = tested on: SARS-CoV-2 gRNA and sgRNAs; format: binding; settings: for target (unweighted spectral count in RNP capture): Probe II capture, LC-MS/MS LFQ; for background (unweighted spectral count in control): no-probe control pull-down, used as background for Probe II; for target (unweighted spectral count of the protein in the RNP capture experiment): LC-MS/MS label-free quantification, probe pool not given; for back-ground (unweighted spectral count of the protein in the control experiment): protein background of the control (e.g. no-probe) experiment
[2] = tested on: HCoV-OC43 gRNA and sgRNA; format: binding; settings: tested against no-probe control

Molecule	target (unweighted spectral count in RNP capture) [1]	background (unweighted spectral count in control) [1]	target (unweighted spectral count of the protein in the RNP capture experiment) [1]	back-ground (unweighted spectral count of the protein in the control experiment) [1]	target (unweighted spectral count, OC43 Probe II capture) ([2]; 36 hpi, type n_36_v, FDR<10%)	target (unweighted spectral count) ([2]; OC43 Probe II, 24 hpi (type n_24_v), infected cells)
B1	10	1				
B2	10	1				
B3			5	1		
B4			6	1		
B5			6	1		
B6	51	1			25	22

From patent US20230407373A1 (priority 2020, published 2023)
